The target in the test is T1, Calnexin (Cnx) on the surface of human cells (MDA-MB-231 ER-G2, Huh7, KP4) (human), P27824.
T1 chain: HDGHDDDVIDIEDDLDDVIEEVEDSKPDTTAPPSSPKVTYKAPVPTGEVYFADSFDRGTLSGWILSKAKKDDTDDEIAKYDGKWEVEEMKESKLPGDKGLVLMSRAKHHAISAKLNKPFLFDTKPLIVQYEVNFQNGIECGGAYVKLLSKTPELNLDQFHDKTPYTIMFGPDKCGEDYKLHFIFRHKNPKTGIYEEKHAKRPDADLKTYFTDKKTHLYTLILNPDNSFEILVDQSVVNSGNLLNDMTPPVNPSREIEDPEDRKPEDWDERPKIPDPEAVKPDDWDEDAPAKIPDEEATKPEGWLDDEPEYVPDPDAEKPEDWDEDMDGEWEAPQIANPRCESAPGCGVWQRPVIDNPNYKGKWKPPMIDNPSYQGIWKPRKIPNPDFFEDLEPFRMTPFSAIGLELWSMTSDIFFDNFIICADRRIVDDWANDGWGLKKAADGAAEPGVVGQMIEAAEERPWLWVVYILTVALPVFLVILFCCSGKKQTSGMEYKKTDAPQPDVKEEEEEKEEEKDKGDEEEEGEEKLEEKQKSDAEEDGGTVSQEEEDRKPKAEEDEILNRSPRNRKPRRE
Put plainly: proximity ligation assay on live, intact cells, probes for Cnx and ERp57. Conditions: remark: other sources report otherwise.

For one molecule, proximity ligation assay signal, fold increase in MDA ER-G2 against wild-type MDA cells results are on record in patent publication US20220363738A1.

B1: ERp57 (PDIA3) on the surface of human MDA-MB-231 ER-G2 cells, P30101 25-505 (enzyme, UniProt P30101 25-505, looked up)
chain: SDVLELTDDNFESRISDTGSAGLMLVEFFAPWCGHCKRLAPEYEAAATRLKGIVPLAKVDCTANTNTCNKYGVSGYPTLKIFRDGEEAGAYDGPRTADGIVSHLKKQAGPASVPLRTEEEFKKFISDKDASIVGFFDDSFSEAHSEFLKAASNLRDNYRFAHTNVESLVNEYDDNGEGIILFRPSHLTNKFEDKTVAYTEQKMTSGKIKKFIQENIFGICPHMTEDNKDLIQGKDLLIAYYDVDYEKNAKGSNYWRNRVMMVAKKFLDAGHKLNFAVASRKTFSHELSDFGLESTAGEIPVVAIRTAKGEKFVMQEEFSRDGKALERFLQDYFDGNLKRYLKSEPIPESNDGPVKVVVAENFDEIVNNENKDVLIEFYAPWCGHCKNLEPKYKELGEKLSKDPNIVIAKMDATANDVPSPYEVRGFPTIYFSPANKKLNPKKYEGGRELSDFISYLQREATNPPVIQEEKPKKKKKAQEDL
modifications: here or on the partner: O-GalNAc (Tn) glycosylation at T50, T59, T66, T79, S81 and S86 after GALA activation
B1 yielded a proximity ligation assay signal, fold increase in MDA ER-G2 against wild-type MDA cells of 10 fold.
